Measurements reported in publication PMC13326754.

Key:
[1] = target: GST-U2AF1α (Fritillaria borealis U2AF small subunit, paralog α) (Fritillaria borealis); test: pull-down; GST-U2AF1 baits co-expressed with U2AF2-V5 in HEK293T cells; glutathione beads; washes under increasing salt concentration; western blot for V5 and GST
[2] = test system: U2AF1alpha (Fritillaria borealis); test: EMSA; conditions: 330 nM; single U2AF1; never exceeded 5% bound; EMSA: 20 mM Hepes, 0.1 M NaCl, 5% glycerol, 0.5% Tween-20, pH 7.8, 50 ng/ul BSA, 0.5 mM TCEP, 0.5 mM EDTA; 1 h on ice; 6% PAGE 0.5x TBE at 4 C
[3] = test system: U2AF1beta (Fritillaria borealis); test: EMSA; conditions: 330 nM; single U2AF1; never exceeded 5% bound; EMSA: 20 mM Hepes, 0.1 M NaCl, 5% glycerol, 0.5% Tween-20, pH 7.8, 50 ng/ul BSA, 0.5 mM TCEP, 0.5 mM EDTA; 1 h on ice; 6% PAGE 0.5x TBE at 4 C

Substance | excess protein bound on glutathione beads relative to U2AF2β [1] | binding signal [2] | binding signal [3]
U2AF2α-V5 (Fritillaria borealis U2AF large subunit, paralog α, V5/6xHis tagged) (natural protein) | 10 to 35% | – | –
GGGUCGCUUCUCCCCCCCCCUAGGCGUCU [ORN.PyC] | – | < 5 % bound | < 5 % bound
GGGCUGUCCUCUUUUUUUUUUCAGGCGUCU [ORN.PyU] | – | < 5 % bound | < 5 % bound
